In publication PMC3686692 (PLoS ONE, 2013):

Key:
hemoglobin [1] = conditions: PK-PD model estimates from different populations and structural models; cited from earlier work
Description: The estimates of red blood cell life span (67.5 days) obtained from this analysis are consistent with previously reported values in the literature (60 to 65 days in dialysis patients), [17].

[2] = cited from earlier work
[3] = Population pharmacokinetic model of peginesatide plasma concentrations (NONMEM); assay type: in vivo, human; conditions: for Subcutaneous bioavailability (F1): fraction
Description: (§1) These studies were: AFX01-02 (NCT00109291) [data on file], AFX01-03 (NCT00228449), AFX01-04 (NCT00228436) and AFX01-07 (NCT00434330) [data on file]). Data were also utilized from one Phase 3 study, AFX01-14 (NCT00597584) conducted in hemodialysis patients. All plasma concentration-time data obtained in Phase 2 (with frequent PK and PD sampling scheme) [7, 8, AFX01-2, AFX01-07] and Phase 3 studies, with sparse PK and frequent PD sampling schemes, were used for the development of the PK model.
The lower and upper limits of quantification for the assay were 25 and 600 ng/mL, respectively.
(§2) The concentration of hemoglobin was measured using a standard laboratory method in a Clinical Laboratory Improvement Amendments certified central laboratory. Baseline weight was used to calculate the dose (in mg/kg). The first order conditional estimation (FOCE) and first-order (FO) method as implemented in NONMEM were used for PK and PK-PD modeling. Model selection criteria included a statistically significant reduction of the objective function value (OFV) (α = 0.05) for nested models, Akaike information criteria for non-nested models, reductions in both residual (σ^2) and inter-subject (ω^2) variability, improvement in the precision of parameter estimates as measured by the percent standard error of the mean (%SEM), and visual examination of standard goodness-of-fit plots.
Several different PK models were evaluated as base structural PK models. These included: 1-compartment and 2-compartment with first-order absorption and elimination; 1-compartment and 2-compartment with first-order absorption and Michaelis-Menton (MM) elimination; and a combination of zero- and first-order absorption with linear and MM elimination. Life-span, negative-feedback and precursor-dependent Lifespan Indirect Response (LIDR) models were evaluated as potential base PK-PD models.
In order to avoid possible multicollinearity issues, GAM analyses were performed for PK and PD parameters using different combinations of covariates that were deemed to be highly correlated (r>0.6) along with the remaining covariates. The potential covariates selected following GAM analysis were then tested using a standard approach of stepwise forward addition (P<0.05) followed by stepwise backward elimination procedure (P<0.005). […] The relationship between continuous covariates and PK and PD parameters were evaluated using linear, exponential and power functions as described in Equations 9, 10, and 11 with the covariates centered or scaled at their median values: [drawing 11] [drawing 12] [drawing 13]
The adequacy of the final PK and PK-PD models was evaluated using a simulation-based prediction-corrected (pc) visual predictive check (VPC) method (1000 replicates). Due to the dose adjustment algorithm used in these trials, the pcVPC was utilized. This technique provides an enhanced ability to diagnose possible model misspecification by removing the variability introduced in an ordinary VPC when binning across a potentially large variability in dose or other influential covariates. The percent of observations outside the 90% prediction interval were also calculated to evaluate predictive ability of the model. A non-parametric bootstrap procedure (1000 bootstrap runs) was also employed to evaluate the precision of the parameter estimates and the robustness of the final PK and PK-PD models.
Inter-individual variability (IIV) was estimated for volume of the central compartment (V2), the absorption rate constant (Ka) and the concentration required to reach 50% of maximum rate of elimination (KM) using exponential models, assuming a log-normal distribution for each parameter.

[4] = dialysis patients, cited from earlier work
hemoglobin [5] = assay: Population PK-PD model (modified precursor-dependent lifespan indirect response) of hemoglobin levels; assay type: in vivo, human; conditions: final PK-PD model
Description: as §1
as §2, with “plots. […]” for “plots.”
In the study, baseline erythropoietin levels were not measured in all patients. […]
A generalized additive modeling (GAM) approach along with graphical analysis (plots of the inter-subject error terms for each parameter [ηi] versus covariates) was used for initial covariate screening and to determine the functional form of the relationship between the covariates and PK and PD parameters of peginesatide. […] The relationship between continuous covariates and PK and PD parameters were evaluated using linear, exponential and power functions as described in Equations 9, 10, and 11 with the covariates centered or scaled at their median values: [drawing 11] […]
The adequacy of the final PK and PK-PD models was evaluated using a simulation-based prediction-corrected (pc) visual predictive check (VPC) method (1000 replicates). […]

[6] = final population PK model, 672 CKD patients on/not on dialysis, IV or SC, final estimate (% SEM)
[7] = final population PK model, SC, final estimate (% SEM)
[8] = final population PK model, median bootstrap estimate, 870/1000 converged runs
[9] = median bootstrap estimate, 935/1000 converged runs

Q: Which results are given for darbepoetin alfa?
A: EC50 (hemoglobin [1]): 0.41 ng/mL; Emax (hemoglobin [1]): 0.637

Q: Which EC50 (hemoglobin [1]) does the source give for “methoxy polyethylene glycol-epoetin beta [Micera]” here?
A: 0.898 ng/mL

Q: And the Emax (hemoglobin [1])?
A: 0.425

Q: For peginesatide, which volume of distribution ([2]; healthy volunteers) is on record?
A: 0.035 L/kg

Q: What about the “half-life (T1/2)” value ([2]; human, in vivo, sc) of the same substance?
A: 53.0 ± 17.7 h

Q: What about the “effect of concomitant medications on PK or PD parameters” value ([3]; concomitant medications taken by >10% of the patient population during 80% of the trial period) of the same substance?
A: did not alter

Q: What about the “total volume of distribution” value ([3]; estimated population value, IV and SC administration) of the same substance?
A: 0.043 L/kg

Q: And the “Central volume of distribution (V2)” value [3, 6]?
A: 35.6 (2.7) mL/kg

Q: What about the “Concentration needed to reach 50% of Vmax (KM)” value [3, 6] of the same substance?
A: 1880 (14.6) ng/mL

Q: And the “Maximum rate of elimination (Vmax)” value [3, 6]?
A: 45.3 (10.0) ng/mL/hr

Q: What about the “Absorption rate constant (Ka)” value [3, 7] of the same substance?
A: 0.00865 (15.6) 1/hr

Q: And the “Subcutaneous bioavailability (F1)” value [3, 7]?
A: 0.498 (4.4)

Q: And the “Peripheral volume of distribution (V3)” value ([3]; final population PK model, final estimate (% SEM))?
A: 7.44 (10.3) mL/kg

Q: And the “Subcutaneous bioavailability (F1)” value [3, 8]?
A: 0.499

Q: And the “Absorption rate constant (Ka)” value [3, 8]?
A: 0.00869 h⁻¹

Q: What about the “Age slope for V2” value [3, 8] of the same substance?
A: –0.125 L/yr

Q: What about the “BMI power for V2” value [3, 8] of the same substance?
A: –0.485

Q: What about the “Central volume of distribution (V2)” value [3, 8] of the same substance?
A: 35.6 mL/kg

Q: What about the “Concentration needed to reach 50% of Vmax (KM)” value [3, 8] of the same substance?
A: 1860 ng/mL

Q: And the “ETHN shift for Ka” value [3, 8]?
A: 0.00815 (1/hr)

Q: What about the “Maximum rate of elimination (Vmax)” value [3, 8] of the same substance?
A: 44.7 ng/mL/h

Q: And the “Peripheral volume of distribution (V3)” value [3, 8]?
A: 7.42 mL/kg

Q: What about the “TBILI slope for V2” value [3, 8] of the same substance?
A: 0.482 L/(g/L)

Q: And the “bioavailability after SC administration” value ([3]; model estimated, final population PK model)?
A: approximately 50%

Q: What about the linearity of pharmacokinetics ([3]; population PK model, over the evaluated dose range) of the same substance?
A: non-linear pharmacokinetics

Q: And the “mean volume of distribution” value ([4]; IV administration, mean ± standard deviation)?
A: 0.0349 ± 0.0138 L/kg

Q: And the accumulation ([4]; IV or SC administration every 4 weeks)?
A: No accumulation

Q: What about the bioavailability ([4]; SC administration) of the same substance?
A: approximately 46%

Q: What about the “time at which Cmax is reached” value ([4]; SC administration) of the same substance?
A: approximately 48 hours

Q: And the “Drug concentration required for 50% of maximum response (EC50)” value (hemoglobin [5]; 517 hemodialysis patients, IV or SC, plasma concentration, final estimate (% SEM))?
A: 401 (2.0) ng/mL

Q: And the “Drug concentration required for 50% of maximum response (EC50)” value (hemoglobin [5]; [9])?
A: 417 ng/mL

Q: What about the “Maximum pharmacologic effect (Emax)” value (hemoglobin [5]; [9]) of the same substance?
A: 0.564
